Test results: patent publication US20220356256A1 (published 2022)

Assays:
Test in all cases: IF staining, CHO cells
[1] = target: T1, FZD3 expressed on CHO cells (UniProt Q9NPG1 23-136, limits assumed)
T1 construct: As m62
T1 sequence (looked up): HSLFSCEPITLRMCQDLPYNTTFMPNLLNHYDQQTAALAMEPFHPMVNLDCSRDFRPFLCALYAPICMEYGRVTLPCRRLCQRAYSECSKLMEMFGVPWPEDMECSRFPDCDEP

[2] = target: T2, FZD10 expressed on CHO cells (UniProt Q9ULW2 29-150, limits assumed)
T2 construct: As m62
T2 sequence (looked up): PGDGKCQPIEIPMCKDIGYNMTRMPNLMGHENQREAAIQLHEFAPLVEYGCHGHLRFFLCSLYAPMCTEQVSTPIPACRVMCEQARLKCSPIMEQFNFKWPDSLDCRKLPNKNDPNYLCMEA

[3] = target: T3, FZD6 expressed on CHO cells (UniProt O60353 19-132, limits assumed)
T3 construct: As m62
T3 sequence (looked up): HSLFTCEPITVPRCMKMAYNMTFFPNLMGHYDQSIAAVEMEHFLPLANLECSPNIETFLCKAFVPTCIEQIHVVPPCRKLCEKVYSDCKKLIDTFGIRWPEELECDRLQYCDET

Measured: binding result

B1: Fab 5017 (Fab, V domains shown)
VH: EVQLVESGGGLVQPGGSLRLSCAASGFNLYYTDMHWVRQAPGKGLEWVASISLFFGYVSYADSVKGRFTISADTSKNTAYLQMNSLRAEDTAVYYCARYLAMDYWGQGTLVTVSS
VL: DIQMTQSPSSLSASVGDRVTITCRASQSVSSAVAWYQQKPGKAPKLLIYSASSLYSGVPSRFSGSRSGTDFTLTISSLQPEDFATYYCQQAAYHWPPLFTFGQGTKVEIKR
notes: Tested as purified Fab; also called 4A1
no binding: all assays above
